The subject of the data set is FVIII L99 (B domain deleted FVIII with R372A and Val374 replaced by a 99 amino acid Gly/Ser linker).

On to human activated Protein C, for which the “remaining FVIII activity (FXa generation test) after addition of human APC with or without protein S” value is listed as “FVIII L99 could be inactivated by human APC with or without Protein S”.

(Values after patent US20110124565.)
